The data set in a line: self-splicing fitness, log relative to wild type (ln ratio); higher = more splicing; Tetrahymena group I intron in knt gene, E. coli kanamycin selection, DiMSum; sequences stand for … in CUCUCU…GGAGGGAAAAGUUAUCAGGCAUGCACCUGGUAGCUAGUCUUUAAACCAAUAGAUUGCAUCGGUUUAAAAGGCAAGACCGUCAAAUUGCGGGAAAGGGGUCAACAGCCGUUCAGUACCAAGUCUCAGGGGAAACUUUGAGAUGGCCUUGCAAAGGGUAUGGUAAUAAGCUGACGGACAUGGUCCUAACCACGCAGCCAAGUCCUAAGUCAACAGAUCUUCUGUUGAUAUGGAUGCAGUUCACAGACUAAAUGUCGGUCGGGGAAGAUGUAUUCUUCUCAUAAGAUAUAGUCGGACCUCUCCUUAAUGGGAGCUAGCGGAUGAAGUGAUGCAACACUGGAGCCGCUGGGAACUAAUUUGUAUGCGAAAGUAUAUUGAUUAGUUUUGGAGUACUCGUGGUCG
The procedure, abridged: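 Six replicate transformations of E. coli BL21(DE3) with a pET-22b(+) library were grown overnight at 37°C or 30°C. The library randomised all eight P1ex-region intron nucleotides, the intron lying in the knt kanamycin-resistance gene, and plates were LB agar with or without 25 μg/mL kanamycin plus 100 μg/mL carbenicillin, 50 μM IPTG and 0.2% rhamnose. Pooled colonies were amplicon-sequenced on an Illumina HiSeq 2500, and fitness is the DiMSum error-weighted combination of wild-type-normalised replicate fold changes, kanamycin versus none.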

Experimental findings from the supplement of paper PMC7877785 are described below.

± gives the uncertainty stated by the source.

GCCAAGCAAUAUUACGCGGA: the “self-splicing fitness (ln)” value (30 °C) is -1.1 ± 0.099 and the “self-splicing fitness (ln)” value (37 °C) is -0.277 ± 0.11.
For GCCAAGCAAUAUUACGCGGU, in that order: -3.73 ± 0.2 and -3.25 ± 0.27.
For GCCAAGCAAUAUUACGCUGU, in that order: -2.26 ± 0.12 and -1.36 ± 0.13.
Turning to GCCAAGCAAUAUUACGGACC, the “self-splicing fitness (ln)” value is -3.32 ± 0.15 (30 °C) and -0.612 ± 0.13 (37 °C).
In the same order, the values of GCCAAGCAAUAUUACGGCAC are -2.04 ± 0.12 and -0.268 ± 0.12.
As for GCCAAGCAAUAUUACGGCAU, the “self-splicing fitness (ln)” value is -3.55 ± 0.21 (30 °C) and -2.55 ± 0.19 (37 °C).
Regarding GCCAAGCAAUAUUACGGCUC, the “self-splicing fitness (ln)” value is -1.99 ± 0.071 (30 °C) and -0.526 ± 0.091 (37 °C).
As for GCCAAGCAAUAUUACGGGAG, the “self-splicing fitness (ln)” value by setting is: (30 °C) -3.55 ± 0.19; (37 °C) -1.46 ± 0.13.
Take GCCAAGCAAUAUUACGGGCG: the “self-splicing fitness (ln)” value is -1.36 ± 0.09 (30 °C) and -0.322 ± 0.11 (37 °C).
For the sequence GCCAAGCAAUAUUACGUACC, the “self-splicing fitness (ln)” value by setting is: (30 °C) -1.28 ± 0.1; (37 °C) -0.683 ± 0.15.
Turning to GCCAAGCAAUAUUACGUAGU, the “self-splicing fitness (ln)” value was -0.579 ± 0.051 (30 °C) and -0.395 ± 0.06 (37 °C).
GCCAAGCAAUAUUACGUAUC: the “self-splicing fitness (ln)” value was -1.66 ± 0.066 (30 °C) and -0.646 ± 0.082 (37 °C).
For the sequence GCCAAGCAAUAUUACGUCAU, the “self-splicing fitness (ln)” value was -2.96 ± 0.22 (30 °C) and -2.59 ± 0.18 (37 °C).
Turning to GCCAAGCAAUAUUACGUCGG, the “self-splicing fitness (ln)” value runs as follows: (30 °C) -2.95 ± 0.18; (37 °C) -2.28 ± 0.24.
In the same order, the values of GCCCAGCAAUAUUACGAAGG are -3.32 ± 0.14 and -2.42 ± 0.21.
For the sequence GCCCAGCAAUAUUACGAAGU, the “self-splicing fitness (ln)” value is, setting by setting: (30 °C) -0.333 ± 0.054; (37 °C) 0.22 ± 0.069.
Consider GCCCAGCAAUAUUACGACGU, for which the “self-splicing fitness (ln)” value (30 °C) is 0.175 ± 0.053 and the “self-splicing fitness (ln)” value (37 °C) turned out to be 0.441 ± 0.067.
In the same order, the values of GCCCAGCAAUAUUACGACUC are -0.305 ± 0.059 and 0.916 ± 0.087.
In the same order, the values of GCCCAGCAAUAUUACGAGAC are -2.15 ± 0.093 and -0.787 ± 0.085.
On to GCCCAGCAAUAUUACGAGAG, for which the “self-splicing fitness (ln)” value is, setting by setting: (30 °C) -2.63 ± 0.096; (37 °C) -1.42 ± 0.1.
As for GCCCAGCAAUAUUACGAGGA, the “self-splicing fitness (ln)” value is, setting by setting: (30 °C) -0.441 ± 0.075; (37 °C) -0.147 ± 0.086.
GCCCAGCAAUAUUACGAUAC: the “self-splicing fitness (ln)” value is, setting by setting: (30 °C) -2.24 ± 0.086; (37 °C) -0.313 ± 0.094.
On to GCCCAGCAAUAUUACGAUUU, for which the “self-splicing fitness (ln)” value by setting is: (30 °C) -1.07 ± 0.076; (37 °C) -0.735 ± 0.1.
GCCCAGCAAUAUUACGCAAG: the “self-splicing fitness (ln)” value by setting is: (30 °C) -2.79 ± 0.093; (37 °C) -2.46 ± 0.14.
For GCCCAGCAAUAUUACGCAGU, the “self-splicing fitness (ln)” value is, setting by setting: (30 °C) -0.834 ± 0.049; (37 °C) 0.141 ± 0.056.
Regarding GCCCAGCAAUAUUACGCAUC, the “self-splicing fitness (ln)” value is, setting by setting: (30 °C) -0.67 ± 0.075; (37 °C) -0.106 ± 0.092.
Turning to GCCCAGCAAUAUUACGCCCC, the “self-splicing fitness (ln)” value is -1.48 ± 0.15 (30 °C) and -0.245 ± 0.22 (37 °C).
On to GCCCAGCAAUAUUACGCCUG, for which the “self-splicing fitness (ln)” value was -3.5 ± 0.3 (30 °C) and -2.64 ± 0.26 (37 °C).
For GCCCAGCAAUAUUACGCGGA, in that order: -0.775 ± 0.098 and -0.201 ± 0.12.
For the sequence GCCCAGCAAUAUUACGCGUU, the “self-splicing fitness (ln)” value was determined as 0.0719 ± 0.046 (30 °C) and 0.222 ± 0.065 (37 °C).
Regarding GCCCAGCAAUAUUACGGAUA, the “self-splicing fitness (ln)” value is -0.88 ± 0.078 (30 °C) and 0.215 ± 0.089 (37 °C).
Regarding GCCCAGCAAUAUUACGGCCG, the “self-splicing fitness (ln)” value (30 °C) is -1.11 ± 0.28.
Turning to GCCCAGCAAUAUUACGGCCU, the “self-splicing fitness (ln)” value was -2.68 ± 0.16 (30 °C) and -0.992 ± 0.13 (37 °C).
GCCCAGCAAUAUUACGGGAC: the “self-splicing fitness (ln)” value reads like this: (30 °C) -4.73 ± 0.31; (37 °C) -2.48 ± 0.14.
GCCCAGCAAUAUUACGUCAA: the “self-splicing fitness (ln)” value runs as follows: (30 °C) -2.62 ± 0.1; (37 °C) -1.68 ± 0.097.
As to GCCCAGCAAUAUUACGUGUC, the “self-splicing fitness (ln)” value runs as follows: (30 °C) -0.887 ± 0.053; (37 °C) -0.349 ± 0.066.
With GCCCAGCAAUAUUACGUGUG, the “self-splicing fitness (ln)” value (30 °C) is -2.21 ± 0.08 and the “self-splicing fitness (ln)” value (37 °C) was -1.69 ± 0.081.
For GCCGAGCAAUAUUACGAACU, the “self-splicing fitness (ln)” value is, setting by setting: (30 °C) -2.13 ± 0.3; (37 °C) -0.52 ± 0.42.
Take GCCGAGCAAUAUUACGAAGU: the “self-splicing fitness (ln)” value was -2.51 ± 0.35 (30 °C) and -1.14 ± 0.24 (37 °C).
Consider GCCGAGCAAUAUUACGAGAC, for which the “self-splicing fitness (ln)” value was -2.93 ± 0.11 (30 °C) and -1.54 ± 0.1 (37 °C).
On to GCCGAGCAAUAUUACGAGGC, for which the “self-splicing fitness (ln)” value is -3.23 ± 0.35 (30 °C) and -2.3 ± 0.37 (37 °C).
On to GCCGAGCAAUAUUACGAUAA, for which the “self-splicing fitness (ln)” value is, setting by setting: (30 °C) -2.07 ± 0.21; (37 °C) -2.08 ± 0.26.
With GCCGAGCAAUAUUACGAUCU, the “self-splicing fitness (ln)” value (37 °C) was -0.908 ± 0.4.
On to GCCGAGCAAUAUUACGAUUU, for which the “self-splicing fitness (ln)” value (30 °C) was -2.04 ± 0.14 and the “self-splicing fitness (ln)” value (37 °C) was -0.375 ± 0.14.
In the same order, the values of GCCGAGCAAUAUUACGCCAU are -2.88 ± 0.23 and -2.5 ± 0.38.
As to GCCGAGCAAUAUUACGCCGG, the “self-splicing fitness (ln)” value reads like this: (30 °C) -3.21 ± 0.3; (37 °C) -2.08 ± 0.38.
Consider GCCGAGCAAUAUUACGCGAA, for which the “self-splicing fitness (ln)” value runs as follows: (30 °C) -1.84 ± 0.12; (37 °C) -1.34 ± 0.17.
With GCCGAGCAAUAUUACGCUCC, for the setting “30 °C”, the “self-splicing fitness (ln)” value is -0.576 ± 0.44.
Consider GCCGAGCAAUAUUACGCUUC, for which the “self-splicing fitness (ln)” value by setting is: (30 °C) -2.53 ± 0.18; (37 °C) -1.65 ± 0.25.
GCCGAGCAAUAUUACGGACG: the “self-splicing fitness (ln)” value runs as follows: (30 °C) -2.44 ± 0.18; (37 °C) -0.841 ± 0.2.
Take GCCGAGCAAUAUUACGGCCU: the “self-splicing fitness (ln)” value (30 °C) is -2.54 ± 0.42 and the “self-splicing fitness (ln)” value (37 °C) was -1.56 ± 0.35.
On to GCCGAGCAAUAUUACGGCUC, for which the “self-splicing fitness (ln)” value (37 °C) was -1.49 ± 0.46.
GCCGAGCAAUAUUACGGGAU: the “self-splicing fitness (ln)” value is -2.03 ± 0.11 (30 °C) and -0.76 ± 0.13 (37 °C).
As for GCCGAGCAAUAUUACGGGUC, the “self-splicing fitness (ln)” value reads like this: (30 °C) -3.68 ± 0.16; (37 °C) -2.77 ± 0.11.
In the same order, the values of GCCGAGCAAUAUUACGUAAC are -2.89 ± 0.19 and -0.977 ± 0.2.
As for GCCGAGCAAUAUUACGUCUA, the “self-splicing fitness (ln)” value reads like this: (30 °C) -3.15 ± 0.29; (37 °C) -0.742 ± 0.15.
For GCCGAGCAAUAUUACGUUAG, in that order: -3.58 ± 0.17 and -2.65 ± 0.19.
On to GCCUAGCAAUAUUACGACUC, for which the “self-splicing fitness (ln)” value was -0.376 ± 0.14 (30 °C) and 0.0998 ± 0.17 (37 °C).
Regarding GCCUAGCAAUAUUACGAGAG, the “self-splicing fitness (ln)” value was -3.76 ± 0.32 (30 °C) and -1.44 ± 0.12 (37 °C).
For GCCUAGCAAUAUUACGAUGA, the “self-splicing fitness (ln)” value runs as follows: (30 °C) -2.48 ± 0.16; (37 °C) -1.4 ± 0.14.
For GCCUAGCAAUAUUACGCCGA, the “self-splicing fitness (ln)” value (30 °C) was -0.66 ± 0.49.
